The numbers were not newly measured in article PMC1950483, which cites them from elsewhere.

Targets include Asp23 (UniProt position 1560, LLISWDAPAVT); Asp7 (UniProt position 1544, SDVPRDLEVVA); Glu9 (UniProt position 1546, VPRDLEVVAAT).
Holding throughout (assay): NMR
Holding throughout (conditions): folded FNfn10 in solution

For orientation: pKa means the negative logarithm of the acid dissociation constant. In the case of “Fibronectin, tenth type III domain (FNfn10) (Homo sapiens)”, the pKa with Asp23 is 5.40; in the data set with Asp7, 5.54; with Glu9, 5.25.
